Test: soluble on expression in E. coli; label from the status in PepcDB or PDB records

Sequence | soluble on expression in E. coli
SAAGVPCALVTSCSSVFSGDQLVQHILGTEDLIVEVTSNDAVRFYPWTIDNKYYSADINLCVVPNKFLVTAEIAESVQAFVVYFDSTQKSGLDSVSSWLPLAKAWLPEVMILVCDRVSEDGINRQKAQEWCIKHGFELVELSPEELPEEDDDFPESTGVKRIVQALNANVWSNVVMKNDRNQGFSLLNSLTGTNHSIGSADPCHPEQPHLPAADSTESLSDHRGGASNTTDAQVDSIVDPMLDLDIQELASLTTGGGDVENFERLFSKLKEMKDKAATLPHEQRKVHAEKVAKAFWMAIGGDRDEIEGLSSDEEH | soluble
MGSDKIHHHHHHMCRLIGYLGNAIPLDELLYKQEHSLYQQSYSPLELKSGVVCADGVGVGWYDQVGKPFIYRNTIPMWNDPNLEELSNYVQSTCTVGYARLAGIGESLDISNCQPFRSDQLLFVHNGEISNFQQTLYRPIRESLSDATYRLIKGTTDSEHIFALLVQMWQSSPDSTLFWALGATLEKLTELASEYNTSFSANLIVSDGEAIAAIRYAYRTQAPTLYWSYDALKHPNQVIVASEPLSNNQNWTAFDEQSMLFFQAQSLEPRISLLKKFSAIGV | not soluble
MGSDKIHHHHHHMDLENKFSYHFLEGLTLTEDGILTQGNEQVYIPQKELGVLIVLLESAGHVVLKDMIIESVWKNIIVSDESLTRCIYSLRCIFEKIGYDRCIETIYRKGYRFSGQVFKTKINEDNTSDYSIAIFPFTTSLNTLDPLILNQELVQIISNKKIDGLYTYPMAATNFCNDHISQNSFLSRFKPDYFVTGRINQNNAVNTLYIELIDAKNLFLIASNHLPVDELHNTSQFIIDNILQTVHKPERSVRLAKQDQGYKNHYLSDEMLAGKKELYDFTPESIYRAMTIFDRLQNKSDIQTLKTECYCLLAECHMSLALHGKSELELAAQKALELLDYVSDITTVDGKILAIMGLITGLSGQAKVSHILFEQAKIHSTDIASLYYYRALVHFHNEKIEEARICIDKSLQLEPRRRKAVVIKECVDMYVPNPLKNNIKLYYKETESESHRVIIDNILKLKQLTRICMR | not soluble
MGSDKIHHHHHHMAPASFSQITGQSVGKIGVLFLLLMVLWSANLCNSSDITPLSANRANVGQMVQAFTFDDLFKEDGPSSDLPQRVFRQTSSWRGFSQLEFAETIASPKHASKLRLRSELSNLGQLSPNVKWKLSARIDYDAIYDLSDFYSRQVRRDQRFELFLRENYLDFSIADFDVRVGRQHIVWGEMVGLFFADVVSAKDMREFVLPDFDILRIPQWAVRTEYSKNDFHADLIWIPFASLDEIGRPGADFYPFKLPVAAPVSFLKEDRSGRNVAHSNYGIRLSQLTNGWDVSAFYYHSLDATPTFHRISQPWEPLLFQARHGEIDQAGGTVTKDLGSAVLKGEFVYTHGRRFNVTRPTAADGLVRQDTIDYALGLDFTLPSDIRLNLQFFQRAYLNYDRDIFQDRLENGGSIFLQGDLWRDFQGQILLIHSFNRNEWMLRPRLTWNFARNWKLAAGADIFNGPPTGLFGRFDSSDRVYTELRFSF | not soluble
MGSDKIHHHHHHMAKIESNDSHLRGILKDELYYQIPIYQRPYQWTEENCEKLLDDLFFNYEDDREGDYFCGSLVLIAISKDSKATTYDVVDGQQRLSTFILLAKVLADLYNDCLDPKNLEHLQEGWKDRHTERKRLSFNTIGSNAEYDFQDALEHFNDSQASKNKNNKNNYLKNAICLKDYLMKKEIKNINDFIEWLYSNVKFITIICPNIDKALRIFNVLNARGLPLNATDIFKGELLKHAKEHEREEFVSRWNALSQKCSDNDLTMETLFSWYNLSQSGNF | not soluble
MGHHHHHHSHMKPIATVGESYQYPPVNWAALLSPLMRLNFGEEIQQLCLEIMVTQAQSSQNAAALLGLWVTPPLIHSLSLNTKRYLLISAPLWIKHISDEQILGFVENLMVAVFKAASPLGSPELCPSALHGLSQAMKLPSPAHHLWSLLSEATGKIFDLLPNKIRRKDLELYISIAKCLLEMTDDDANRIAQVTKSNIEKAAFVKLYLVSQGRFPLVNLTDMLSVAVQHREKEVLAWMILHSLYQARIVSHANTGVLKRMEWLLELMGYMKCCLPVNILSQYGS | not soluble
MNERDIICAGCGVKIQTESKEMLGYTPPSALKRDVIICQRCFRMQHYNEVQDVSLTDDDFLKILHTIGERKALIVKLVDIFDFNGSWLPGLHRFVGGNDVLLIGNKVDLLPKSVNRNRMINWMRKSAKDLGLKPIDVALISGEKGIGVKEVASLIDRLRKGKDVYVVGATNVGKSTFINKMIQIFGGDEEQMITTSHFPGTTLDMIDIPLDDGKTLYDTPGIINHHQMAHYVAKNELKLITPKKEIKPKVFQLNEEQTLFFGGLARFDFVKGERTSFVCYVSNDLFIHRTKLEKADELYEKRLGDVLTPPEDPQHLPSLVKHEFTIRVQKVDVVISGLGWVTVNGTNVKVCAYAPEGVGVSIRESLILEHHHHHH | soluble
MAQGFAVGFDPLGLGDLSSGSLSSLSSRGHLGSDSGSTATRYLLRKQQRLLNGPPRGIRASSPMGRVILINSPIEANSDESDIIHSVRVEKSPAGRLGFSVRGGSEHGLGIFVSKVEEGSSAERAGLCVGDKITEVNGLSLESTTMGSAVKVLTSSSRLHMMVRRMGRVPGIKFSKEKTTWVDVVNRRLVVEKCGSTPSDTSSEDGVRRIVHLYTTSDDFCLGFNIRGGKEFGLGIYVSKVDHGGLAEENGIKVGDQVLAANGVRFDDISHSQAVEVLKGQTHIMLTIKETGRYPAYKEMVSEYCWLDRLSNGVLQQLSPASESSSSVSSCASSAPYSSGSLPSDRMDICLGQEEPGSRGPGWGRADTAMQTEPDAGGRVETWCSVRPTVILRDTAIRSDGPHPGRRLDSALSESPKTALLLALSRPRPPITRSQSYLTLWEEKQQRKEKSGSPGEKGALQRSKTLMNLFFKGGRQGRLARDGRREAWTLDSGSLAKTYPRLDIEKEMGAT | soluble
MYNVTQHATYKTKNKRETAVLIGVHAQTDRQFNFESTMEELDALSQTCQLNVKGQITQNREQFDHKYYVGKGKIDEIKSFIEFHDIDVVVTNDELTTAQSKTLNDNLGIKIIDRTQLILEIFALRARSREGKLQVELAQLDYLLPRLHGHGKSLSRLGGGIGTRGPGETKLEMDRRHIRTRMNEIKHQLKTVVDHRERYRNKREQNQVFQIALVGYTNAGKSSWFNVLANEETYEKNILFATLDPKTRQIQVNEGFNLIISDTVGFIQKLPTTLVAAFKSTLEEAKGADVLMHVVDASHSEYRTQIDTVNQIINDLDMDHIPQVVIFNKKDLCNEQMDVPVSKSAHVFVSSRDENDKQKVKNLVIQEIKNSLSPYEEIVDSADADRLYFLKQHTLVTELIFDETQASYRIKGFKKLLEHHHHHH | not soluble
MLSAAAFAADKVVKLPKPNLNRTGTVMKALSERQSTREYASKALTLADLSDLLWAANGINRSDAGKRTAPSAMNKQDVDVYVILSEGSYLYDAKNHQLNLIAEGDYRGAVAGGQAFVKTAPVSLVLISDVSRFGDAQKIQNQLMGAMDAGIVSQNISIFCSAAKLATVPRASMDAAQLKKVLKLKDSQIPMMNHPVGYFK | not soluble
MKPRPQSDAVDNEGPTPLSKGRRHLAMRLDDAWLGFQTRLAIRRGRVETVIPYTGYGSTSWVRVLARIVRSDPRDAAGHTNPLQESMRGWRNFTSAPVAHASVQVTIDGTVHDVVADRGGVVDARIPVALDAGWHTITLRSGESETVEAPVEIVADDAVFGVVSDIDDTVMVTALPRPFLAAWNTFVLNEHARTPTPGMAVLYERIARTAPSAPVLYLSTGAWNVAPTLSRFLSRNLYPAGPKLLTDWGPTPDRWFRSGQEHKRTSLERLAEEFPNIKWLLVGDDGQHDEAIYSEFAQRHPASVRAIAIRQLSAGEAVLAGGRSKSGGQPTPGVPWIYAPDGAGMSAQLEELGIIRNEVRSADDPEEGEVTTGSDLEHHHHHH | soluble
MAKSNSNNSHNEADTLSSLLSSVGSSYDGESDSTFVSTGTTPSSSRRSRLDSFLSTTSSSKSRPRIKSKLPRSSSSGFSGTGSERSISSKRSKIGNTSGNRNKISQSARRRLLQAEIESRRNRSNKSPGSSRKSILKKSPMKKRRSLSRKSLPKKEHIPPVQKFAIIKNPAARNQVRGFVAEYAQDPEFEAFELLVDGIPFVALSLMNAHPDLRGRFKPVPPPTPMKKHTPGINSPRKRPLRRESISSVNSKSVRFTDEGSSFSKRARKSSSGDVDSSIRELGETVSDAMIDTGRQYNDLWKDRAHSVEK | not soluble
MDLSSKPQQQLLNSLPIAGELTVTGEMGVCYKECLKNHAANLGGHALDGCGEFMPSPTATSTDPSSLRCAACGCHRNFHRRDPSENLNFLTAPPISSPSGTESPPSRHVSSPVPCSYYTSAPPHHVILSLSSGFPGPSDQDPTVVRSENSSRGAMRKRTRTKFTPEQKIKMRAFAEKAGWKINGCDEKSVREFCNEVGIERGVLKVWMHNNKYSLLNGKIREIEHGLCLNTHSNDGDGSSSS | soluble
MSTDKITFLLNWQPTPYHIPIFLAQTKGYFKEQGLDMAILEPTNPSDVTELIGSGKVDMGLKAMIHTLAAKARGFPVTSVASLLDEPFTGVLYLKGSGITEDFQSLKGKKIGYVGEFGKIQIDELTKHYGMKPEDYTAVRCGMNVAKYIIEGKIDAGIGIECMQQVELEEYLAKQGRPASDAKMLRIDKLACLGCCCFCTVLYICNDEFLKKNPEKVRKFLKAIKKATDYVLADPVKAWKEYIDFKPQLNNDLSYKQYQRCYAYFSSSLYNVHRDWKKVTGYGKRLAILPPDYVSNYTNEYLSWPEPEEVSDPLEAQRLMAIHQEKCRQEGTFKRLALPA | soluble
MAELDEAALLGDGNEQHDGPIDENALLDGKELKEEDIDDLYDEAIAPTNSTESAKPVSPTITTVTAPTAGIGAKPATSSEGRKYCCYVGNLLWYTTDADLLKALQSTGLARSQFADMKFFENRTNGQSKGYALLVLNSDAAVKQTMEILPTKTIHGQSPTVLSYNKTNQAKLEDAQAKNQTRPDVKKKGFEEGCVNMGTIRIGAGGQTGRTGTSVSGRSGPPPLMMQQVRPTPLMSQPTSLPSNLNQAPQMRLQINGQQVPLMNRAPVPQQTMLGNGPLGGMNQQIQQQPQMMMGQQVRPMMQTSMGIQPMMGMNAPPPMNNQFQNRPPQLGSMGVQPLMQMNTAMRPPINGLPPVHVNPQMFPGLQGTVLSDAEFEDVMTRNQTVSSSAIARAITDASVGDIKGASETILTAIQLIKNSRIGHDERCRQLVYGLEHTLKGLESKGYSSRSKSHRDRSRSRERDRKRRRRSRTRSRSYSRSPSPRRRRY | soluble
MPMFTSFDHQMMSRAIELAWRGRFTTSPNPNVGCVITRGEQIVGEGFHFRAGEPHAEVHAMRQAGELTRGATAYVTLEPCSHYGRTPPCAEGLIKAGVAKVICAMQDPNPQVAGKGVQMLRDAGIEVEVGLLEADARVLNRGFLKRMETGMPFVQLKMAASLDGQTALANGKSQWITSPAARKDVQRFRAQASAILSTSQTVLADNASLAVRWYDLPSSVQAQYAEADLRQPLRVILDRQHQLHPELALYQTPSPVLRVASENAELCISAENGKLDLRELLALLAQQHNVNQLWVEAGSQLAQSLIEQKLVDEIILYLAPKLMGSDGRGLFGALGLTEMAEAIELKIEDCRMVGADLRIIATPKTKD | not soluble
MQARKLAVDGAIEFTPRVFADDRGLLILPYQEEAFVEAHGGPLFRVAQTIHSMSKRGVVRGIHYTVTPPGTAKYVYCARGKAMDIVIDIRVGSPTFGQWDSVLMDQQDPRAVYLPVGVGHAFVALEDDTVFSYMASRSYVTQDELALSALDPALGLPIDIGVEPIVSDRDRVAITLAEAQRQGLLPDYTTSQEIERRLTAVPVST | soluble
MGSDKIHHHHHHMAKLCHKPLHILFFRHSLLGRGGDKMVVCQANALARRGHQVTIRTATLATPFSLDDRIEINLTGSSSVAATLMDLFKGRFSFDLLIVDIIPLAVLAGIRFGRTKVIYYVQDWDVSYYRSLAFRSLIRLLYFVERSFLRIPVIVVSEHLLGKIGRTGIGATYVVENGIDLTLFNSKGRLHPAFAPGHIPTFLLFIRNDWRKGSDLALKVVKKLADRYPHAFGVVAVGNRPAIRPSQIDWIDKGFMDERQIADLMKQCDLFLYPSRHEGFGLMALEAFACGCLVVTTTAVGFAHDIENSLVAEVDDEQGLYSRLCCLLEKQIEIAPLVKKAEEFASEHPLELCMDRFCSVIEELNQ | not soluble
